Measurements reported in FireProtDB (doi:10.1021/bi9928694).

B1: Lysozyme C, P61626 (parent)
chain: MKALIVLGLVLLSVTVQGKVFERCELARTLKRLGMDGYRGISLANWMCLAKWESGYNTRATNYNAGDRSTDYGIFQINSRYWCNDGKTPGAVNACHLSCSALLQDNIADAVACAKRVVRDPQGIRAWVAWRNRCQNRDVRQYVQGCGV

Variants of: B1
Conditions: Homo sapiens, reversible: yes, structure 1LZ1, whole UniProt chain shown
[1] = pH 2.7, 64.9 °C, Thermal, DSC, glycine-HCl 0.05 M
[2] = pH 2.7, Thermal, DSC, glycine-HCl 0.05 M
[3] = pH 4, 10 °C, GdnHCl, CD, glycine-HCl 40 mM

Variant	ddG of mutation (higher = less stable) [1]	heat capacity change of unfolding [1]	unfolding enthalpy (calorimetric) [1]	Tm [2]	heat capacity change of unfolding [2]	unfolding enthalpy (calorimetric) [2]	ddG of mutation (higher = less stable) [3]	denaturant midpoint (higher = more stable) [3]	unfolding free energy [3]	change of melting temperature, mutant - wild type (higher = more stable) [2]
G55Q	0.26 kcal/mol	1.15 kcal/mol/K	108 kcal/mol	64.9 °C	1.15 kcal/mol/K	108 kcal/mol	0.86 kcal/mol	3.79 M	13.5 kcal/mol	–
R68G	-0.26 kcal/mol	1.46 kcal/mol/K	100 kcal/mol	65.8 °C	–	–	–	–	–	0.9 °C
H96G	0.12 kcal/mol	1.58 kcal/mol/K	109 kcal/mol	64.9 °C	1.58 kcal/mol/K	109 kcal/mol	0.53 kcal/mol	3.81 M	13.8 kcal/mol	–
Q76G	–	–	–	–	1.34 kcal/mol/K	109 kcal/mol	-2.06 kcal/mol	4.26 M	16.4 kcal/mol	5.7 °C
